Measurements taken from patent US20230242623A1 (GEORGIA TECH RESEARCH, published 2023).

B1: 3F2 (antibody, V domains shown)
VH: QVQLQQPGAELVKPGASVKMSCKASGYTFTSYSLHWVKQTPGQGLEWIGAVYPGNDDTSYNQNFKGKATLTADKSSNTAYMQLSSLTSEDSAVYYCARDGYFAMDYWGQGTSVTVSS
VL: DIVMSQSPSSLAVSVGEKVTMSCKSSQSLLYSTNQKNYLAWYQQKPGQSPKLLIYWASTRESGVPDRFTGSGSGTDFTLTISSVKAEDLAVYYCHQYYSYPWTFGGGTKLEIK
notes: also called 1-3F2
B2: 3A2 (antibody, V domains shown)
VH: QVTLKESGPGILQPSQTLSLTCSFSGFSLSTSGMGVSWIRQPSGKGLEWLAHIYWDDDKRYNPSLKSRLTISKDTSSSQVFLKITSVDTVDTATYYCARRGPLITTDGTFDVWGAGTTVTVSS
VL: DIVMTQSRKFMSTSVGDRVSITCKASQDVGTSVAWYQQKPGQSPKLLIYWASTRHTGVPDRFTGSGSGTDFTLTINSVQSEDLADYFCQQYSSYPYTFGGGTKLEMK
notes: also called 3A2 clone
B3: 3F5 (antibody, V domains shown)
VH: QVTLKESGPGILQPSQTLSLTCSFSGFSLSTSGMGVSWIRQPSGKGLEWLAHIYWDDDKRYNPSLKSRLTISKDTSSSQVFLKITSVDTVDTATYYCARRGPLITTDGTFDVWGAGTTVTVSS
VL: DIVMTQSRKFMSTSVGDRVSITCKASQDVGTSVAWYQQKPGQSPKLLIYWASTRHTGVPDRFTGSGSGTDFTLTINSVQSEDLADYFCQQYSSYPYTFGGGTKLEMK
notes: also called 1-3F5
B4: 3A7 (antibody, V domains shown)
VH: QVTLKESGPGILQPSQTLSLTCSFSGFSLSTSGMGVSWIRQPSGKGLEWLAHIYWDDDKRYNPSLKSRLTISKDTSSSQVFLKITSVDTVDTATYYCARRGPLITTDGTFDVWGAGTTVTVSS
VL: DIVMTQSRKFMSTSVGDRVSITCKASQDVGTSVAWYQQKPGQSPKLLIYWASTRHTGVPDRFTGSGSGTDFTLTINSVQSEDLADYFCQQYSSYPYTFGGGTKLEMK
notes: also called 3A7 clone
B5: 3H2 (antibody, V domains shown)
VH: QVQLQQSGAELMKPGASVKISCKATGNTFSNYWIEWVKQRPGHGLEWIGEILPGSDSTNYNEKFKGKATFTADTSSKTAYMQLSSLTSEDSAVYYCARNRFYWYFDVWGAGTTVTVSS
VL: DVVMTQTPLSLPVSLGDQASISCRSSQSLVHSNGNTYLHWYLQKPGQSPKLLIYKVSNRFSGVPDRFSGSGSGTDFTLKISRVEAEDLGIYFCSQSTHVPWTFGGGTKLEIK
notes: also called 1-3H2
B6: 3B3 (antibody, V domains shown)
VH: DVQLQESGPGLVKPSQSLSLTCTVTGYSITSDYAWIWIRQFPGNKLEWMAYISYSGTTSYNPSLKSRISITRDTSKNQFFLQLNSVTTEDTATYYCAGRRGAYYGNYEEDYWGRGTSVTVSS
VL: QIVLTQSPAIMSASPGEKVTMTCSSSSIVNYMYWYQQKPGSSPRLLIYDTSTLASGVPVRFSGSGSGTSYSLTISRMEAEDAATYYCQQWSSYPYTFGGGTKLEIK
notes: also called 3B3 clone; 1-3B3

target: T1, SARS-CoV-2 RBD (RBD-luciferase antigen of the split-luciferase reporter) (SARS-CoV-2, UniProt P0DTC2 319-541); assay: split-luciferase reporter of RBD-hACE2 interaction; antibody against hACE2
T1 construct: domain: RBD

**Q.** With B1 as the binder, how does the “% inhibition of RBD-hACE2 binding” value read?
**A.** Its value is greater than 80%.

**Q.** For B2, which “% inhibition of RBD-hACE2 binding” value is on record?
**A.** Its value is greater than 80%.

**Q.** How did the “% inhibition of RBD-hACE2 binding” value turn out when B3 was run?
**A.** Its value is greater than 80%.

**Q.** How did the “% inhibition of RBD-hACE2 binding” value turn out when B4 was run?
**A.** Its value is greater than 80%.

**Q.** For B5, which “% inhibition of RBD-hACE2 binding” value is on record?
**A.** Its value is greater than 80%.

**Q.** How did the “% inhibition of RBD-hACE2 binding” value turn out when B6 was run?
**A.** The value was greater than 80%.
